These results are taken from patent publication US20200400675A1 (ECS PROGASTRIN, published 2020).

The chains are these.
T1: human progastrin (human, UniProt P01350 22-101)
T1 construct: also called hPG; PG
T1 sequence: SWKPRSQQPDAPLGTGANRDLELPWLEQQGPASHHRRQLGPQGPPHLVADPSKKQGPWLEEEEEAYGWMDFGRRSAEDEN

B1: mAb4 (hybridoma 20D2C3G2) (antibody, V domains shown)
VH: QVQLQQSGAELMKPGASVKISCKATGYTFSSSWIEWLKQRPGHGLEWIGEFLPGSGSTDYNEKFKGKATFTADTSSDTAYMLLSSLTSEDSAVYYCATDGNYDWFAYWGQGTLVTVSA
VL: DLVMTQTPLSLPVSLGDQASISCRSSQSLVHSSGVTYLHWYLQKPGQSPKLLIYKVSNRFSGVPDRFSGSGSGTDFTLKISRVEAEDLGVYFCSQSTHVPPTFGSGTKLEIK
notes: Murine monoclonal antibody
B2: mAb16 (hybridoma 1E9D9B6) (antibody, V domains shown)
VH: QVQLQQSGAELVKPGASVKLSCKASGYTFTSYYMYWVKQRPGQGLEWIGEINPSNGGTNFNEKFKSKATLTVDKSSSTAYMQLSSLTSEDSAVYYCTRGGYYPFDYWGQGTTLTVSS
VL: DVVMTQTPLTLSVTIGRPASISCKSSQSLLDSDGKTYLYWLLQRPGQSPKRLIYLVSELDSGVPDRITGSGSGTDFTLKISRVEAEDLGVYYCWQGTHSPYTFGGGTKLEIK
notes: Murine monoclonal antibody
B3: mAb19 (hybridoma 1B3B4F11) (antibody, V domains shown)
VH: DVQLQESGPGLVKPSQSLSLTCTVTGYSITSDYAWNWIRQFPGNKLEWMGYISFSGYTSYNPSLKSRISVTRDTSRNQFFLQLTSVTTEDTATYYCAREVNYGDSYHFDYWGQGTIVTVSS
VL: QLALTQSSSASFSLGASAKLTCTLSSQHRTYTIEWYQQQSLKPPKYVMEVKKDGSHSTGHGIPDRFSGSSSGADRYLSISNIQPEDEAIYICGVGDAIKGQSVFVFGGGTKVTVL
notes: Murine monoclonal antibody
B4: mAb3 (hybridoma 6B5B11C10) (antibody, V domains shown)
VH: EVQLQQSGTVLARPGASVKMSCKASGYIFTSYWVHWVKQRPGQGLEWIGGFYPGNSDSRYNQKFKGKATLTAVTSASTAYMDLSSLTNEDSAVYFCTRRDSPQYWGQGTTLTVSS
VL: DVLMTQTPLSLPVSLGDQASISCRSSQSIVHSNGNTYLEWYLQKPGQSPKLLIYKVSNRFSGVPDRFSGSGSGTDFTLKISRLEAEDLGVYYCFQGSHVPFTFGGGTKLEIK
notes: Murine monoclonal antibody
B5: mAb13 (hybridoma 2C6C3C7) (antibody, V domains shown)
VH: EVQLVESGGGLVQPGGSLKLSCAASGFIFSSYGMSWVRQSPDRRLELVASINTFGDRTYYPDSVKGRFTISRDNAKNTLYLQMTSLKSEDTAIYYCARGTGTYWGQGTTLTVSS
VL: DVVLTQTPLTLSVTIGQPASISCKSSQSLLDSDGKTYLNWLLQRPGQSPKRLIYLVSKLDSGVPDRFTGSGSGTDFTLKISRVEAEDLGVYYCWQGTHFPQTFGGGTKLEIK
notes: Murine monoclonal antibody

The assay concerns the target T1, human progastrin. In words: epitope mapping (no details given).
For the molecule B1, the binding result is “binds”. On to B2, for which the binding result is given as “binds”. Take B3: the binding result was “binds”. In the case of B4 it was “binds”; in that of B5, “binds”.
